Reference: patent publication US7351690B2, “Knockout identification of target-specific sites in peptides” (priority 2000, dated 2008)
Square brackets hold non-standard residues; d marks the D form. Ends that are not written are not given here. Nle = CCCC[C@H](N)C(=O)O

Legend:
[1] = biological target: T1, MC1-R (Mus musculus, UniProt Q01727); test: competitive inhibition binding assay, 125I-NDP-alpha-MSH, B-16 mouse melanoma cell membranes; conditions: for % Inhibition at 1 μM at Melanocortin Receptor 1: 1 μM test peptide, 0.4 nM 125I-NDP-alpha-MSH, B-16 mouse melanoma cell membranes
T1 construct: membranes prepared from hMC3-R, hMC4-R, hMC5-R, and B-16 mouse melanoma cells (containing MC1-R); endogenous in cells; host or cells: B-16 mouse melanoma cells (membranes)
T1 sequence (Q01727 whole entry): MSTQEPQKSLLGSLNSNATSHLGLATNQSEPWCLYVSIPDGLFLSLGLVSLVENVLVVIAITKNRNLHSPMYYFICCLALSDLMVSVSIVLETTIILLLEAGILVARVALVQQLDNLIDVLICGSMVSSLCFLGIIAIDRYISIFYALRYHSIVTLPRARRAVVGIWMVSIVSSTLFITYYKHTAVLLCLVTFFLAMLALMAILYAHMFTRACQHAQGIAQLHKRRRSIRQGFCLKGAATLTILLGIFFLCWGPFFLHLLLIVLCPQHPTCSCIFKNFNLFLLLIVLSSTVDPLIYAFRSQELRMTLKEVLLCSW
Method in brief: (§1)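 Membranes from hMC3-R, hMC4-R, hMC5-R or B-16 cells (MC1-R) incubated 90 min at room temperature with 0.4 nM 125I-NDP-alpha-MSH and rhenium-complexed test peptide, typically 1 μM, in HEPES pH 7.2 with Mg/Ca/K. Filter-bound radioactivity counted; % inhibition of specific binding (1 μM alpha-MSH defines nonspecific), triplicate means.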

[2] = biological target: T2, hMC3-R (Homo sapiens, UniProt P41968); test: competitive inhibition binding assay, 125I-NDP-alpha-MSH, hMC3-R membranes; conditions: for % Inhibition at 1 μM at Melanocortin Receptor 3: 1 μM test peptide, 0.4 nM 125I-NDP-alpha-MSH, hMC3-R membranes
T2 construct: expressed in transfected cells
T2 sequence (P41968 whole entry): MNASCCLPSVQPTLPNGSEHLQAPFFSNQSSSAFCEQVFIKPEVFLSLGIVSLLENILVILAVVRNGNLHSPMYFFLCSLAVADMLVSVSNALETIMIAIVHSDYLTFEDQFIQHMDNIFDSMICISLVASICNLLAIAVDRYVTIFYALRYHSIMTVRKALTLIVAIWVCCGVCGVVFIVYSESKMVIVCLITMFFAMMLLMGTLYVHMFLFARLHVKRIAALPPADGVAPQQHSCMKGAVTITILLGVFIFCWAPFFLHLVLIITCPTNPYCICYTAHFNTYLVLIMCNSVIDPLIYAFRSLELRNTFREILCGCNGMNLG
Method in brief: as §1

[3] = biological target: T3, hMC4-R (Homo sapiens, UniProt P32245); test: competitive inhibition binding assay, 125I-NDP-alpha-MSH, hMC4-R membranes; conditions: for % Inhibition at 1 μM at Melanocortin Receptor 4: 1 μM test peptide, 0.4 nM 125I-NDP-alpha-MSH, hMC4-R membranes
T3 construct: expressed in transfected cells
T3 sequence (P32245 whole entry): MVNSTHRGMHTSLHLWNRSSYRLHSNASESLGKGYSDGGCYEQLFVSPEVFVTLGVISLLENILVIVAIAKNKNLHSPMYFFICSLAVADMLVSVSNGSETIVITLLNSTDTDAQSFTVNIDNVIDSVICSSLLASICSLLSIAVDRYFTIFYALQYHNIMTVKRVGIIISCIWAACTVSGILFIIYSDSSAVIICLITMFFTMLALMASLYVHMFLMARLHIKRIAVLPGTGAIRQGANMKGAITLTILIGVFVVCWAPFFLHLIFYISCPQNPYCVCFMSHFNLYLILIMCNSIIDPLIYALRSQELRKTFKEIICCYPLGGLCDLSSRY
Method in brief: as §1

[4] = biological target: T4, hMC5-R (Homo sapiens, UniProt P33032); test: competitive inhibition binding assay, 125I-NDP-alpha-MSH, hMC5-R membranes; conditions: for % Inhibition at 1 μM at Melanocortin Receptor 5: 1 μM test peptide, 0.4 nM 125I-NDP-alpha-MSH, hMC5-R membranes
T4 construct: expressed in transfected cells
T4 sequence (P33032 whole entry): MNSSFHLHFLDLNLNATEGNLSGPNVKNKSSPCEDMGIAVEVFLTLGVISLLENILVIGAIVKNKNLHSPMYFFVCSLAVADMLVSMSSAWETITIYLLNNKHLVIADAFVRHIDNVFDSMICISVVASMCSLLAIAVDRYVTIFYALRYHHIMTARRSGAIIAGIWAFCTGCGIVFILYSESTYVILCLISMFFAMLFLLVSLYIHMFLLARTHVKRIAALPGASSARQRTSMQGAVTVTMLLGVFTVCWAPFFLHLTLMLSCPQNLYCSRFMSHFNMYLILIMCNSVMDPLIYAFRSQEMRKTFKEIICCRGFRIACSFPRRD
Method in brief: as §1

Substance	% Inhibition at 1 μM at Melanocortin Receptor 1 [1]	% Inhibition at 1 μM at Melanocortin Receptor 3 [2]	% Inhibition at 1 μM at Melanocortin Receptor 4 [3]	% Inhibition at 1 μM at Melanocortin Receptor 5 [4]	binding to MC1-R, in words [1]	binding to MC3-R, in words [2]	binding to MC4-R, in words [3]	binding to MC5-R, in words [4]
Tyr-Val-Nle-Gly-His-D-Phe-Arg-Trp-Asp-Arg-Phe-Cys-NH2 (FRWDRFC; Tyr-Val-Nle-Gly-His N-term; D-residue; amide; printed: Phe-Arg-Trp-Asp-Arg-Phe-Cys-) [3-1]	95%	96%	98%	102%	–	–	–	–
Tyr-Val-Nle-Gly-His-Phe-Arg-Trp-Cys-Asp-Arg-Phe-NH2 (YV[Nle]GHFRWCDRF-NH2; numbers in words are those of the source; also: oxorhenium(V) N3S1 chelate (Re=O) with Cys) [4-4]	52%	20%	39%	47%	–	–	–	–
Ac-Ser-Tyr-Ser-Nle-Glu-His-Phe-Cys-Arg-Trp-Gly-Lys-Pro-Val-NH2 (Ac-SYS[Nle]EHFCRWGKPV-NH2; not fully specified (bridges); printed as Ac-Ser-Tyr-Ser-Nle-Glu-His-Phe-Cys-Arg-Trp-Gly-Lys-Pro-Val-NH2; numbers in words are those of the source; also: oxorhenium(V) N3S1 chelate (Re(V)=O)) [1-7]	68%	0%	0%	0%	–	–	–	–
Tyr-Val-Nle-Gly-His-D-Phe-Arg-Trp-Cys-Arg-Phe-NH2 (YV[Nle]GH[dF]RWCRF-NH2; numbers in words are those of the source; also: oxorhenium(V) N3S1 chelate complex (Re=O)) [5-3]	100%	93%	97%	100%	–	–	–	–
Ac-Ser-Tyr-Ser-Nle-Glu-His-Phe-Arg-Trp-Gly-Lys-D-Cys-Pro-Val-NH2 (Ac-SYS[Nle]EHFRWGK[dC]PV-NH2; not fully specified (bridges); printed as Ac-Ser-Tyr-Ser-Nle-Glu-His-Phe-Arg-Trp-Gly-Lys-D-Cys-Pro-Val-NH2; numbers in words are those of the source; also: oxorhenium(V) N3S1 chelate (Re(V)=O)) [2-3]	91%	41%	25%	38%	–	–	–	–
Ac-Ser-Tyr-Ser-Nle-Glu-His-Phe-Arg-Trp-Gly-Lys-Cys-Pro-Val-NH2 (Ac-SYS[Nle]EHFRWGKCPV-NH2; not fully specified (bridges); printed as Ac-Ser-Tyr-Ser-Nle-Glu-His-Phe-Arg-Trp-Gly-Lys-Cys-Pro-Val-NH2; numbers in words are those of the source; also: oxorhenium(V) N3S1 chelate (Re(V)=O)) [1-3]	87%	0%	0%	12%	–	–	–	–
Tyr-Val-Nle-Gly-His-Phe-Arg-Cys-Trp-Asp-Arg-Phe-NH2 (YV[Nle]GHFRCWDRF-NH2; numbers in words are those of the source; also: oxorhenium(V) N3S1 chelate (Re=O) with Cys) [4-5]	89%	87%	74%	68%	preserved all receptor binding	preserved all receptor binding	preserved all receptor binding	preserved all receptor binding
Tyr-Val-Nle-Gly-His-Cys-Phe-Arg-Trp-Asp-Arg-Phe-NH2 (YV[Nle]GHCFRWDRF-NH2; numbers in words are those of the source; also: oxorhenium(V) N3S1 chelate (Re=O) with Cys) [4-7]	−4%	17%	4%	15%	–	–	–	–
YVCGH[dF]RWDRF-NH2 [5-9]	89%	53%	66%	53%	–	–	–	–
